Values of other authors, collected in PMC3057930.

Target: CaMKIIp (UniProt Q9UQM7)
Sequence (Q9UQM7 293-312): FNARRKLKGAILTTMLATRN

Kd: 950 nM
Substance: (Ca2+)2-CaM76-148 76-148 (from UniProt P0DP29)
